The conditions of this data set: Escherichia coli (strain K12), pH 5.5, CD, Potassium phosphate 2 mM, KF 5 mM, reversible: yes, whole UniProt chain shown.

B1: Ribonuclease HI wild type, P0A7Y4 (protein)
chain: MLKQVEIFTDGSCLGNPGPGGYGAILRYRGREKTFSAGYTRTTNNRMELMAAIVALEALKEHCEVILSTDSQYVRQGITQWIHNWKKRGWKTADKKPVKNVDLWQRLDAALGQHQIKWEWVKGHAGHPENERCDELARAAAMNPTLEDTGYQVEV
B1: under “25 °C, Urea”, the denaturant m value was 2.1 kcal/mol/M and the unfolding free energy was 9.7 kcal/mol. In addition, where the note is “Thermal”, the melting temperature (Tm) is 47.8 °C.

For the origin of these results see FireProtDB (doi:10.1038/12277).
